Paper PMC10645729

T1: human ribonucleotide reductase large subunit RRM1 (human) (UniProt P23921)
T1 sequence: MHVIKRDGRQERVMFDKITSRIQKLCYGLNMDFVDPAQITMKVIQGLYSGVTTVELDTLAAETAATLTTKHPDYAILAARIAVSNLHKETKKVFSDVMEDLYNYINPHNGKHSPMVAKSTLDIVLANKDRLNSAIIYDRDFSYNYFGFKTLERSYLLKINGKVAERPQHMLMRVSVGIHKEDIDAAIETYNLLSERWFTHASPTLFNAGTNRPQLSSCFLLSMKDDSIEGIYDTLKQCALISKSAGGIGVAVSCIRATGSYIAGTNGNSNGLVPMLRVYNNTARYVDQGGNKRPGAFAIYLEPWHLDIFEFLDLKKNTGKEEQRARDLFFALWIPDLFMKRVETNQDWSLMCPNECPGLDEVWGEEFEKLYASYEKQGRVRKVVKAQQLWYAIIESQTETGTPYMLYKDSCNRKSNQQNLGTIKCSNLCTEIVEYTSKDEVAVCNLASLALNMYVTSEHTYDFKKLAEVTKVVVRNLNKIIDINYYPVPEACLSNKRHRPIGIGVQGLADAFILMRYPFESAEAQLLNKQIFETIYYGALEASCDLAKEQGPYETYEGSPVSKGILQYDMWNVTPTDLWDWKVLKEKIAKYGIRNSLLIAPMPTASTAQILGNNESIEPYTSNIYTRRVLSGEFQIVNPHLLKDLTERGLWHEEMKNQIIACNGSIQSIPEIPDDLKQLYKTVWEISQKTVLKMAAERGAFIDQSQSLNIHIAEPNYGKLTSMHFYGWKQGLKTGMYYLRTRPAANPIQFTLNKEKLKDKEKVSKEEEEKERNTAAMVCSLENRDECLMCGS


Biological target: T1, human ribonucleotide reductase large subunit RRM1 (human)

Row | Binder | RNR activity of the reconstituted complex (CDP to dCDP, HPLC), percent of wild-type hRRM2B; hRRM1 2 μM, hRRM2B 6 μM (% of wild type)
1 | hRRM2B N221S (enzyme) MGDPERPEAAGLDQDERSSSDTNESEIKSNEEPLLRKSSRRFVIFPIQYPDIWKMYKQAQASFWTAEEVDLSKDLPHWNKLKADEKYFISHILAFFAASDGIVNENLVERFSQEVQVPEARCFYGFQILIENVHSEMYSLLIDTYIRDPKKREFLFNAIETMPYVKKKADWALRWIADRKSTFGERVVAFAAVEGVFFSGSFAAIFWLKKRGLMPGLTFSSELISRDEGLHCDFACLMFQYLVNKPSEERVREIIVDAVKIEQEFLTEALPVGLIGMNCILMKQYIEFVADRLLVELGFSKVFQAENPFDFMENISLEGKTNFFEKRVSEYQRFAVMAETTDNVFTLDADF | 33
2 | hRRM2B F202G (enzyme) MGDPERPEAAGLDQDERSSSDTNESEIKSNEEPLLRKSSRRFVIFPIQYPDIWKMYKQAQASFWTAEEVDLSKDLPHWNKLKADEKYFISHILAFFAASDGIVNENLVERFSQEVQVPEARCFYGFQILIENVHSEMYSLLIDTYIRDPKKREFLFNAIETMPYVKKKADWALRWIADRKSTFGERVVAFAAVEGVFFSGSGAAIFWLKKRGLMPGLTFSNELISRDEGLHCDFACLMFQYLVNKPSEERVREIIVDAVKIEQEFLTEALPVGLIGMNCILMKQYIEFVADRLLVELGFSKVFQAENPFDFMENISLEGKTNFFEKRVSEYQRFAVMAETTDNVFTLDADF | 21.5
3 | hRRM2B F198G (enzyme) MGDPERPEAAGLDQDERSSSDTNESEIKSNEEPLLRKSSRRFVIFPIQYPDIWKMYKQAQASFWTAEEVDLSKDLPHWNKLKADEKYFISHILAFFAASDGIVNENLVERFSQEVQVPEARCFYGFQILIENVHSEMYSLLIDTYIRDPKKREFLFNAIETMPYVKKKADWALRWIADRKSTFGERVVAFAAVEGVFGSGSFAAIFWLKKRGLMPGLTFSNELISRDEGLHCDFACLMFQYLVNKPSEERVREIIVDAVKIEQEFLTEALPVGLIGMNCILMKQYIEFVADRLLVELGFSKVFQAENPFDFMENISLEGKTNFFEKRVSEYQRFAVMAETTDNVFTLDADF | 19.1
4 | hRRM2B F206G (enzyme) MGDPERPEAAGLDQDERSSSDTNESEIKSNEEPLLRKSSRRFVIFPIQYPDIWKMYKQAQASFWTAEEVDLSKDLPHWNKLKADEKYFISHILAFFAASDGIVNENLVERFSQEVQVPEARCFYGFQILIENVHSEMYSLLIDTYIRDPKKREFLFNAIETMPYVKKKADWALRWIADRKSTFGERVVAFAAVEGVFFSGSFAAIGWLKKRGLMPGLTFSNELISRDEGLHCDFACLMFQYLVNKPSEERVREIIVDAVKIEQEFLTEALPVGLIGMNCILMKQYIEFVADRLLVELGFSKVFQAENPFDFMENISLEGKTNFFEKRVSEYQRFAVMAETTDNVFTLDADF | 11.7
